Experimental data taken from patent US20130129739A1 (Bayer, published 2013).
“And” between values parts separate entries of the source, which are not always exact repeats. Equal entries are not always repeated.

T1: human prolactin receptor (PRLR) on cells (human, UniProt P16471 25-622)
T1 sequence (looked up): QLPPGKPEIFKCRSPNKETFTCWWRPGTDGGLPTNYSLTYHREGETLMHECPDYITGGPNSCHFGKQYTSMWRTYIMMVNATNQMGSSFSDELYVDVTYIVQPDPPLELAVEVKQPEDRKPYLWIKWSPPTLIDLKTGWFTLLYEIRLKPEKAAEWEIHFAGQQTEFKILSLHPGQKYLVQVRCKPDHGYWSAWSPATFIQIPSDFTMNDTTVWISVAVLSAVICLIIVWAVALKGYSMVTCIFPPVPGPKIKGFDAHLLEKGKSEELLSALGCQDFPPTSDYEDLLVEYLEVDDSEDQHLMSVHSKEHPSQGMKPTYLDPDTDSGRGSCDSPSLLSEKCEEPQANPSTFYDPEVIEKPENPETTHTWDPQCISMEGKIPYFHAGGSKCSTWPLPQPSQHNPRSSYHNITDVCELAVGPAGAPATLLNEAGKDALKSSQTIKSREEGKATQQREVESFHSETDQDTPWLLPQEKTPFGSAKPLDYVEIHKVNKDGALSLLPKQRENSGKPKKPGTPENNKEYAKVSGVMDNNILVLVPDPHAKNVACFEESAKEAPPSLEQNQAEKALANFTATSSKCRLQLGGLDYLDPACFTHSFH

T2: extracellular domain of human PRLR (monomeric, soluble) (human, UniProt P16471 25-234)
T2 construct: also called ECD-PRLR; ECD of PRLR
T2 sequence: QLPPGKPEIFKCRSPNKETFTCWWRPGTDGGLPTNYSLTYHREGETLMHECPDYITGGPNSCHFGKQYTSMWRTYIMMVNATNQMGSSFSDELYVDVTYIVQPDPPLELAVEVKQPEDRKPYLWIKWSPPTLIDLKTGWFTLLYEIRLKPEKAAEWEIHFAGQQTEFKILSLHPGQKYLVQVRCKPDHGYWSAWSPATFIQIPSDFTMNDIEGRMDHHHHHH

T3: rat prolactin receptor (PRLR) on Nb2 lymphoma cells (rat, UniProt P05710 20-610)
T3 construct: whole, on cells; also called rat PRLR
T3 sequence (looked up): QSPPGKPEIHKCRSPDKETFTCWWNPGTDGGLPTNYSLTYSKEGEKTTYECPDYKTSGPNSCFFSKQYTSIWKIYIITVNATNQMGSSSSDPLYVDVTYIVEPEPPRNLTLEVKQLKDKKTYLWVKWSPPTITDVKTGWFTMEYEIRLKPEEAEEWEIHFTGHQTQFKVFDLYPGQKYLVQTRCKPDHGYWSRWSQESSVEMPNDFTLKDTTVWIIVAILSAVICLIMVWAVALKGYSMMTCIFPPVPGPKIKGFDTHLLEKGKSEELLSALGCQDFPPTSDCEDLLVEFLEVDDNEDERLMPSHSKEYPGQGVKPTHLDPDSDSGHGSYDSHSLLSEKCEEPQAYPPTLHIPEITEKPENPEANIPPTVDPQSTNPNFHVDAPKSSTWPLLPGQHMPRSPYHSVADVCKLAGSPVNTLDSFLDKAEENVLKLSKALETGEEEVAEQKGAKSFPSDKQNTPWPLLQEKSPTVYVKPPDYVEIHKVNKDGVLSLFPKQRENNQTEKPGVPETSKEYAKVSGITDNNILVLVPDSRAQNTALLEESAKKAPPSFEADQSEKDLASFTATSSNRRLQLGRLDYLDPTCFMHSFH


Legend:
[1] = molecular target: T1, human prolactin receptor (PRLR) on cells; test: cell-based or functional assay
[2] = molecular target: T2, extracellular domain of human PRLR …; test: SPR (Biacore), IgG1 directly immobilized, monomeric human PRLR ECD from HEK293 as analyte
[3] = molecular target: T1, human prolactin receptor (PRLR) on cells; test: cell-based or functional assay; remark: listed apart in the source
[4] = molecular target: T1, human prolactin receptor (PRLR) on cells; test: FACS on human breast cancer cell line T47D, IgG1
[5] = molecular target: T3, rat prolactin receptor (PRLR) on Nb2 …; test: FACS on rat lymphoma cell line Nb2, IgG1
[6] = molecular target: T2, extracellular domain of human PRLR …; test: ELISA: plate coated with human PRLR extracellular domain, Fab-containing E. coli supernatant, anti-flag-HRP, Amplex Red
Procedure: 96 well microtiter plates were coated with 1 μg per milliliter of human PRLR. Plates were incubated over night at 4° C. After blocking with PBS buffer containing 3% bovine serum albumin, normalized E. coli-derived supernatants containing the Fab variants were added. Detection of formed complexes occurred via the addition of an anti-flag antibody (Sigma, A8592) labeled with horseradish peroxidase.

Row | Binder | Kd [2] | koff [2] | Inhibition of phosphorylation of ERK1/2 in % at 7.5 µg/ml (ELISA, prolactin-treated T47D lysates) [3] | Inhibition of phosphorylation of PRLR in % at 7.5 µg/ml (ELISA, prolactin-treated T47D lysates) [3] | Inhibition of phosphorylation of STAT5 in % at 7.5 µg/ml (ELISA, prolactin-treated T47D lysates) [3] | other results
1 | 002-H08 (antibody, V domains shown, Tested as human IgG1) VH: QVELLESGGGLVQPGGSLRLSCAASGFTFSSYGMHWVRQAPGKGLEWVSGVSWNGSRTHYADSVKGRLTISRDNSKNTLYLQMNSLRAEDTAVYYCARGGDFDYWGQGTLVTVSS VL: QSVLTQPPSASGTPGQRVTISCSGSSSNIGSNDVYWYQQLPGTAPKLLIYDNNKRPSGVPDRFSGSKSGTSASLAISGLRSEDEADYYCQSYDSSLSGSWVFGGGTKLTVLG | 1.8 nM | 0.0002 s⁻¹ |  |  |  | IC50, inhibition of prolactin-activated Ba/F cell proliferation (human PRLR) [1]: 4.8 nM and 0.72 µg/ml
2 | 002-H08 (Fab format) (Fab, V domains shown) VH: QVELLESGGGLVQPGGSLRLSCAASGFTFSSYGMHWVRQAPGKGLEWVSGVSWNGSRTHYADSVKGRLTISRDNSKNTLYLQMNSLRAEDTAVYYCARGGDFDYWGQGTLVTVSS VL: QSVLTQPPSASGTPGQRVTISCSGSSSNIGSNDVYWYQQLPGTAPKLLIYDNNKRPSGVPDRFSGSKSGTSASLAISGLRSEDEADYYCQSYDSSLSGSWVFGGGTKLTVLG |  |  | 100% | 100% | 98% | 
3 | XHA06.983 (antibody, V domains shown, Novartis antibody (WO2008/022295)) VH: DVQLVESGGGLVQPGGSRKLSCAASGFAFSSFGMQWVRQAPEKGLEWVAYISSGSSTIYYADTVKGRFTISRDNPKNTLFLQMTSLRSEDTAMYYCVRSGRDYWGQGTSVTVSS VL: SIVMTQTPKFLLVSAGDRVTITCKASQGVSNDVAWFQQKPGQSPKLLIYSASTRYTGVPDRLTGSGYGTDFTFTINTVQAEDLAVYFCQQDYTSPTFGGGTKLEIKR | 0.2 nM | 0.00017 s⁻¹ |  |  |  | EC50 [4]: 0.3 nM; binding result [5]: no binding
4 | 006-H07 (scFv format) (scFv, V domains shown) VH: QVELLESGGGLVQPGGSLRLSCAASGFTFEDHGMSWVRQAPGKGLEWVSLISWDDGSNKYYADSVKGRFTISRDNSKNTLYLQMNSLRAEDTAVYYCATSLRATAFDTWGQGTLVTVSS VL: not shown |  |  | 85% | 88% | 73% | 
5 | 006-H08 (scFv format) (scFv, V domains shown) VH: not shown VL: DIVLTQPPSASGTPGQRVTISCSGSNSNIGSNPVNWYQQLPGTAPKLLIYDNNKRPSGVPDRFSGSKSGTSASLAISGLRSEDEADYYCQSYDTGLSGWVFGGGTKLTVLG |  |  | 100% | 100% | 100% | 
6 | 002-H06 (Fab format) (Fab, V domains shown) VH: QVELLESGGGLVQPGGSLRLSCAASGFTFANYGLTWVRQAPGKGLEWVAVISFNGDKKYYADSVKGRFTISRDNSKNTLYLQMNSLRAEDTAVYYCASPLESPVAFDIWGQGTLVTVSS VL: QSVLTQPPSASGTPGQRVTISCSGSYSNIGGNPVNWYQQLPGTAPKLLIYGNSNRPSGVPDRFSGSKSGTSASLAISGLRSEDEADYYCQSYDSSLSGSVFGGGTKLTVLG |  |  | 86% | 92% | 72% | 
7 | 002-H06 (antibody, V domains shown, Tested as human IgG1) VH: QVELLESGGGLVQPGGSLRLSCAASGFTFANYGLTWVRQAPGKGLEWVAVISFNGDKKYYADSVKGRFTISRDNSKNTLYLQMNSLRAEDTAVYYCASPLESPVAFDIWGQGTLVTVSS VL: QSVLTQPPSASGTPGQRVTISCSGSYSNIGGNPVNWYQQLPGTAPKLLIYGNSNRPSGVPDRFSGSKSGTSASLAISGLRSEDEADYYCQSYDSSLSGSVFGGGTKLTVLG | 2.7 nM | 0.00054 s⁻¹ |  |  |  | IC50, inhibition of prolactin-activated Ba/F cell proliferation (human PRLR) [1]: 0.54 µg/ml and 3.6 nM
8 | 001-E06 (antibody, V domains shown, Tested as human IgG1) VH: QVELLESGGGLVQPGGSLRLSCAASGFTFSSYWMSWVRQAPGKGLEWVSSVSDTGTDTHYADSVKGRFTISRDNSKNTLYLQMNSLRAEDTAVYYCAKTPLAYSSGWYYFDYWGQGTLVTVSS VL: DIVLTQPPSASGTPGQRVTISCSGSSSNIGSNTVNWYQQLPGTAPKLLIYRNYQRPSGVPDRFSGSKSGTSASLAISGLRSEDEADYYCQSYDSSLSGSVFGGGTKLTVLG | 15.8 nM | 0.0048 s⁻¹ |  |  |  | EC50 [4]: 1.8 nM; EC50 [5]: 1.2 nM
9 | 001-E06 (Fab format) (Fab, V domains shown) VH: QVELLESGGGLVQPGGSLRLSCAASGFTFSSYWMSWVRQAPGKGLEWVSSVSDTGTDTHYADSVKGRFTISRDNSKNTLYLQMNSLRAEDTAVYYCAKTPLAYSSGWYYFDYWGQGTLVTVSS VL: DIVLTQPPSASGTPGQRVTISCSGSSSNIGSNTVNWYQQLPGTAPKLLIYRNYQRPSGVPDRFSGSKSGTSASLAISGLRSEDEADYYCQSYDSSLSGSVFGGGTKLTVLG |  |  | 45% | 63% | 36% | 
10 | 005-C04-L2-1-47-0 (Fab, V domains shown, Maturated 005-C04 variant; Fab in E. coli supernatant, flag-detected) VH: EVQLLESGGGLVQPGGSLRLSCAASGFTFSSYWNHWVRQAPGKGLEWVSDISRLSPYTNYADSVKGRFTISRDNSKNTLYLQMNSLRAEDTAVYYCARGLDARRMDYWGQGTLVTVTS VL: QSVLTQPPSASGTPGQRVTISCTGSSSNIGAGYVVHWYQQLPGTAPKLLIYRNNWRPSGVPDRFSGSKSGTSASLAISGLRSEDEADYYCAAWDDSLNGWLFGGGTKLTVLG |  |  |  |  |  | binding result [6]: binds
11 | 005-C04-48-1 (Fab, V domains shown, Maturated 005-C04 variant; Fab in E. coli supernatant, flag-detected) VH: EVQLLESGGGLVQPGGSLRLSCAASGFTFSSYWNHWVRQAPGKGLEWVSDISRASSYTNYADSVKGRFTISRDNSKNTLYLQMNSLRAEDTAVYYCARGLDARRMDYWGQGTLVTVTS VL: QSVLTQPPSASGTPGQRVTISCTGSSSNIGYGYVVHWYQQLPGTAPKLLIYRNNQRPSGVPDRFSGSKSGTSASLAISGLRSEDEADYYCAAWDDSLNGWLFGGGTKLTVLG |  |  |  |  |  | binding result [6]: binds
12 | 005-C04-L2-1-48-3 (Fab, V domains shown, Maturated 005-C04 variant; Fab in E. coli supernatant, flag-detected) VH: EVQLLESGGGLVQPGGSLRLSCAASGFTFSSYWNHWVRQAPGKGLEWVSDISRASPYTNYADSVKGRFTISRDNSKNTLYLQMNSLRAEDTAVYYCARGLDARRMDYWGQGTLVTVTS VL: QSVLTQPPSASGTPGQRVTISCTGSSSNIGAGYVVHWYQQLPGTAPKLLIYRNNQRQSGVPDRFSGSKSGTSASLAISGLRSEDEADYYCAAWDDSLNGWLFGGGTKLTVLG |  |  |  |  |  | binding result [6]: binds
